Measurements from IntAct's records for PubMed 29040270.

B1: Rho-related GTP-binding protein RhoE (Homo sapiens), P61587 (parent)
chain: MKERRASQKLSSKSIMDPNQNVKCKIVVVGDSQCGKTALLHVFAKDCFPENYVPTVFENYTASFEIDTQRIELSLWDTSGSPYYDNVRPLSYPDSDAVLICFDISRPETLDSVLKKWKGEIQEFCPNTKMLLVGCKSDLRTDVSTLVELSNHRQTPVSYDQGANMAKQIGAATYIECSALQSENSVRDIFHVATLACVNKTNKNVKRNKSQRATKRISHMPSRPELSAVATDLRKDKAKSCTVM

Key:
[1] = variants of: B1; conditions: with plxb1_human PLXNB1, O43157
[2] = variants of: B1; conditions: with plxb2_human PLXNB2, O15031
plxb2_human PLXNB2, O15031, sequence (O15031 whole entry): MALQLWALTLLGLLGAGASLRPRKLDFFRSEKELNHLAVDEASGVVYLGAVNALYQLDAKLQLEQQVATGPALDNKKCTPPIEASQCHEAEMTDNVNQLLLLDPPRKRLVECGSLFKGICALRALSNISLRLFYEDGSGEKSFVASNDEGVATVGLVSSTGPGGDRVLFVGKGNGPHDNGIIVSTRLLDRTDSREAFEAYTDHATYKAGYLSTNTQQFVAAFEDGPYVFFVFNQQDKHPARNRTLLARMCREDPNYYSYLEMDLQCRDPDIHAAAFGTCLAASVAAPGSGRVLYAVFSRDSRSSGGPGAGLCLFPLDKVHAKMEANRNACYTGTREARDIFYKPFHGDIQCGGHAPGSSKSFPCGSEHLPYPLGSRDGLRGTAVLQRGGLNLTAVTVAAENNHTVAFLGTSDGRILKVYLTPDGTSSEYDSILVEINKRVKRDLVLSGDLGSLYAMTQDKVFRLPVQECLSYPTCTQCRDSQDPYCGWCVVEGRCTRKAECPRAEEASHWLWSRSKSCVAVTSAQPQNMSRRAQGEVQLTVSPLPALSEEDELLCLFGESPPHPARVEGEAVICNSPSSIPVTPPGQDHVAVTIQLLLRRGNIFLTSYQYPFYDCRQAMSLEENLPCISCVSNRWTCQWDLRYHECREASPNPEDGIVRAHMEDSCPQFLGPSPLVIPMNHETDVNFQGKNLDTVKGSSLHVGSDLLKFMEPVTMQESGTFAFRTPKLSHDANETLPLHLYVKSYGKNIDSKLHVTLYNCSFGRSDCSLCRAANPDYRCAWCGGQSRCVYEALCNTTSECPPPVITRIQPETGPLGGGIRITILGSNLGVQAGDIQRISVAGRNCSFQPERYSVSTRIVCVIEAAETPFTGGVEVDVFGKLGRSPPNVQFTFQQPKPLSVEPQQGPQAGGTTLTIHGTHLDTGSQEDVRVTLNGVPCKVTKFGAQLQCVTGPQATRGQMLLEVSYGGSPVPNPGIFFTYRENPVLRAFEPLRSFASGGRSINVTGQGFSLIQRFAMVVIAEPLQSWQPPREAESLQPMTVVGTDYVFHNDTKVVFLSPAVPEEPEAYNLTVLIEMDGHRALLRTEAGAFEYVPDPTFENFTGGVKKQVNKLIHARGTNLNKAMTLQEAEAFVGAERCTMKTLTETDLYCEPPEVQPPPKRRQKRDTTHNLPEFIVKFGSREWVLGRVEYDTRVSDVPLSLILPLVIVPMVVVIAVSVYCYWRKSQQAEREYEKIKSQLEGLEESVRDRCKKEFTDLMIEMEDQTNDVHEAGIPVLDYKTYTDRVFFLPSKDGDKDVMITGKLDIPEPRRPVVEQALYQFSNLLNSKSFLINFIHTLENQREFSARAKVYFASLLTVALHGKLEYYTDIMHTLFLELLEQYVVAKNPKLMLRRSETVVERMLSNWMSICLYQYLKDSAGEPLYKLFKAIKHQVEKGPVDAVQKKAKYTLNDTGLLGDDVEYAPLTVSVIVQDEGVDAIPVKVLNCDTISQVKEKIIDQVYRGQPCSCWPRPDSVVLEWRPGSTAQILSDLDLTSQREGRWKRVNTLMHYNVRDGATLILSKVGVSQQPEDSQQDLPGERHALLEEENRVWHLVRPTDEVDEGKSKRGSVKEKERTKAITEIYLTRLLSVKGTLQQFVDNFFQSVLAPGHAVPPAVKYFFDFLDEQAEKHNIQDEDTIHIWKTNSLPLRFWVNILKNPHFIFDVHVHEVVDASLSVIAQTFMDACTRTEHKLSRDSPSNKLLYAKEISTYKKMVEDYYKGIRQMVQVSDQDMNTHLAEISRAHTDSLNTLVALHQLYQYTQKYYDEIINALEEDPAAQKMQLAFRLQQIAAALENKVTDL

plxb1_human PLXNB1, O43157, sequence (O43157 whole entry): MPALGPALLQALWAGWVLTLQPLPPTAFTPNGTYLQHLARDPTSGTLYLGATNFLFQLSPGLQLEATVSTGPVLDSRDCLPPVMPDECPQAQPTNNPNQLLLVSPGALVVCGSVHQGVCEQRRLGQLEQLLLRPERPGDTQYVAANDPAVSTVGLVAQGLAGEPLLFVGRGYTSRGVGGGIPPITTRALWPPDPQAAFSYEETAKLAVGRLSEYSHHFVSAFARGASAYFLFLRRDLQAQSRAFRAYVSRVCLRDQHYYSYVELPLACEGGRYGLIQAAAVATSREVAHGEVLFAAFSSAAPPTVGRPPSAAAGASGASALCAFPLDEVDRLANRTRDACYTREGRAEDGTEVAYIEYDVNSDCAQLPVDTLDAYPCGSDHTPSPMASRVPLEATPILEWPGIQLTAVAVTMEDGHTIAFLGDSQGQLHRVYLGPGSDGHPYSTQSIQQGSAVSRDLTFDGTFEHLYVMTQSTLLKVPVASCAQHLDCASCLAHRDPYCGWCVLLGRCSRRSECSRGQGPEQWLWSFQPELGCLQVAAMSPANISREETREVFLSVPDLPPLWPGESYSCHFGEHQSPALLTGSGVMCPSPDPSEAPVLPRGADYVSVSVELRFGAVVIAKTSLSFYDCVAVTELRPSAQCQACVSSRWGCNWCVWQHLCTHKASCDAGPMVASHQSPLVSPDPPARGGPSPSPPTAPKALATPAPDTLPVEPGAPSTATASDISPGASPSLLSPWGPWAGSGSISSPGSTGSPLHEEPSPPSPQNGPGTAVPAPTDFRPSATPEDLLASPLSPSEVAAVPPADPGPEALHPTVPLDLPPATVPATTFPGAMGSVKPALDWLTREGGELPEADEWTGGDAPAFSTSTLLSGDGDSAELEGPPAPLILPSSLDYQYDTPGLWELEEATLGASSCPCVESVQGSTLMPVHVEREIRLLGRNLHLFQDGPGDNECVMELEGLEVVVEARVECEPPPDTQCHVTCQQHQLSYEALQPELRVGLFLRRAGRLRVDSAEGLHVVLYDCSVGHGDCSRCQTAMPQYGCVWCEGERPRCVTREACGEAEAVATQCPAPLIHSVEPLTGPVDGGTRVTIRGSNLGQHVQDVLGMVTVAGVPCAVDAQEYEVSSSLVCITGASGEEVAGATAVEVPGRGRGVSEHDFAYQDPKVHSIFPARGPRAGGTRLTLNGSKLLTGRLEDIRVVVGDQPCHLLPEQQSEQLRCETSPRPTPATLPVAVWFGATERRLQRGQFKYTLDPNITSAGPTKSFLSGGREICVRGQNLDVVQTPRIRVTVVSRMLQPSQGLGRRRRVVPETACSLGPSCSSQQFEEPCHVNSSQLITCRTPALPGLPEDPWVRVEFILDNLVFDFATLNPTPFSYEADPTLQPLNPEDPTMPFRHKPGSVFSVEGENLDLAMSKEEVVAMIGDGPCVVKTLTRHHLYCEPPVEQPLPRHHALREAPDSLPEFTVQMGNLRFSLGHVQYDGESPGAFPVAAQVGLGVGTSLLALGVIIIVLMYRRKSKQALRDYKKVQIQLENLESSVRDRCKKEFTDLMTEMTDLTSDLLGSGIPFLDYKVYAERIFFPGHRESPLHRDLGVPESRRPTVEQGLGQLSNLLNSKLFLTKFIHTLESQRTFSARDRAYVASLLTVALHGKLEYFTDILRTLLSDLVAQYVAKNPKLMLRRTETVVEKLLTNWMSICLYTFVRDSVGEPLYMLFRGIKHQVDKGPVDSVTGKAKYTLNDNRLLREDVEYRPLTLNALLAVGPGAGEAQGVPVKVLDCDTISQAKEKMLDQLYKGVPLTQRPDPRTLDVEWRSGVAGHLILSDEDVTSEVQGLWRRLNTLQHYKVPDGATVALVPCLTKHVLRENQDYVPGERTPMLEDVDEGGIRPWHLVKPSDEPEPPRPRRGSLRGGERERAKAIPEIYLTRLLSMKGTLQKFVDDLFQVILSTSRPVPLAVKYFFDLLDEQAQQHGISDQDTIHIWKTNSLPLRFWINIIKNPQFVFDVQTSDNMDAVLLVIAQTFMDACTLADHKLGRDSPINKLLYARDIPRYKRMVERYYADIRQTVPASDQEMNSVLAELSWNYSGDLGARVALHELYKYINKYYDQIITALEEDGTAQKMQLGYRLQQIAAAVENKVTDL

| Variant | effect of a mutation on the interaction [1] | effect of a mutation on the interaction [2] |
| --- | --- | --- |
| MKERRASQKLSSKSIMDPNQNVKCKIVVVGDSQCGKTALLHVFAKDCFPENYVPTVFENATASFEIDTQRIELSLWDTSGSPYYDNVRPLSYPDSDAVLICFDISRPETLDSVLKKWKGEIQEFCPNTKMLLVGCKSDLRTDVSTLVELSNHRQTPVSYDQGANMAKQIGAATYIECSALQSENSVRDIFHVATLACVNKTNKNVKRNKSQRATKRISHMPSRPELSAVATDLRKDKAKSCTVM [Y60A] | with no effect | with no effect |
| MKERRASQKLSSKSIMDPNQNVKCKIVVVGDSQCGKTALLHVFAKDCFPENYVPTVFENYTASFEIDTQRIELSLWDTSGSPYYDNRRPLSYPDSDAVLICFDISRPETLDSVLKKWKGEIQEFCPNTKMLLVGCKSDLRTDVSTLVELSNHRQTPVSYDQGANMAKQIGAATYIECSALQSENSVRDIFHVATLACVNKTNKNVKRNKSQRATKRISHMPSRPELSAVATDLRKDKAKSCTVM [V87R] | disrupting interaction strength | disrupting interaction strength |
| MKERRASQKLSSKSIMDPNQNVKCKIVVVGDSQCGKTALLHVFAKDCFPENYVPTVFENYTASFEIDTQRIELSLWDTSGSPYYDRVRPLSYPDSDAVLICFDISRPETLDSVLKKWKGEIQEFCPNTKMLLVGCKSDLRTDVSTLVELSNHRQTPVSYDQGANMAKQIGAATYIECSALQSENSVRDIFHVATLACVNKTNKNVKRNKSQRATKRISHMPSRPELSAVATDLRKDKAKSCTVM [N86R] | with no effect | with no effect |

Results, then the variant that gave them:

| effect of a mutation on the interaction [1] | effect of a mutation on the interaction [2] | Variant |
| --- | --- | --- |
| with no effect | with no effect | MKERRASQKLSSKSIMDPNQNVKCKIVVVGDSQCGKTALLHVFAKDCFPENYVPTVFENYTASFEIDTQRIELSLWDTSGSPYYDNVRPLSYPDSDAVLICFDISRPETLDSVLKKWKGEIQEYCPNTKMLLVGCKSDLRTDVSTLVELSNHRQTPVSYDQGANMAKQIGAATYIECSALQSENSVRDIFHVATLACVNKTNKNVKRNKSQRATKRISHMPSRPELSAVATDLRKDKAKSCTVM [F124Y] |
| disrupting interaction strength | disrupting interaction strength | MKERRASQKLSSKSIMDPNQNVKCKIVVVGDSQCGKTALLHVFAKDCFPENYVPTVFENYTASFEIDTQRIELSLWDTSGSPYYDNVRPRSYPDSDAVLICFDISRPETLDSVLKKWKGEIQEFCPNTKMLLVGCKSDLRTDVSTLVELSNHRQTPVSYDQGANMAKQIGAATYIECSALQSENSVRDIFHVATLACVNKTNKNVKRNKSQRATKRISHMPSRPELSAVATDLRKDKAKSCTVM [L90R] |
